According to paper PMC11414387:

Molecular target: FBXO11 (UniProt Q86XK2)
Experiment: co-IP of exogenous proteins
Details: reference: wild type

binding against the reference (sites S37)	binding against the reference (sites S33)	Substance
lost		β-catenin (from UniProt P35222) S37A
	lost	β-catenin (from UniProt P35222) S33A
